The record followed here is patent publication US20230002478A1.

Assay [1] addresses Fc-gamma Receptor 1 (FcγR1) (UniProt P12314).
Assay [2] concerns the target FcγR2B/C (UniProt P31994). Kind of assay: SPR, kinetic fit.
Assay [3] concerns the target FcγR2a H167 (UniProt P12318). Kind of assay: SPR, kinetic fit.
The target in assay [4] is FcγR3A 176F (UniProt P08637). Kind of assay: SPR, kinetic fit.
Assay [5] deals with FcγR3A 176V (UniProt P08637). The assay is described as follows: SPR, kinetic fit. (In SPR one partner is held on a chip, and binding of the other changes the refractive index at the surface.)
Chain of FcγR3A 176V (P08637 17-208 F176V): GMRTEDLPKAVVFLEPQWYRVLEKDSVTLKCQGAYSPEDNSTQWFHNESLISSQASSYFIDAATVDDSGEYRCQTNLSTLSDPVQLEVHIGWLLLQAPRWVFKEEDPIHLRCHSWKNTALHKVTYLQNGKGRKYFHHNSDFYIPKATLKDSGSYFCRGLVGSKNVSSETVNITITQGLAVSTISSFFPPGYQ
Assay [6] addresses FcγR2B/C (UniProt P31994). The assay is described as follows: SPR, steady state fit.
In assay [7] the target is FcγR2a H167 (UniProt P12318). Kind of assay: SPR, steady state fit.
Chain of FcγR2a H167 (P12318 36-218): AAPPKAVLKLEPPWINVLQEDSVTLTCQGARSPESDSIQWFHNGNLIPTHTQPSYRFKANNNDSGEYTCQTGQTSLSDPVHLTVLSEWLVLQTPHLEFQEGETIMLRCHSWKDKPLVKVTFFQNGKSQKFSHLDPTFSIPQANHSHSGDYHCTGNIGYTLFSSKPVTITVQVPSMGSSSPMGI
Assay [8] has as its target FcγR3A 176F (UniProt P08637). The assay is described as follows: SPR, steady state fit.
In assay [9] the target is FcγR3A 176V (UniProt P08637). The assay is described as follows: SPR, steady state fit.
For assay [10], the target named is neonatal Fc receptor (FcRn) (Human) (UniProt P55899). Kind of assay: SPR at pH 6.0, kinetic fit.
Chain of neonatal Fc receptor (FcRn) (Human) (P55899 24-297): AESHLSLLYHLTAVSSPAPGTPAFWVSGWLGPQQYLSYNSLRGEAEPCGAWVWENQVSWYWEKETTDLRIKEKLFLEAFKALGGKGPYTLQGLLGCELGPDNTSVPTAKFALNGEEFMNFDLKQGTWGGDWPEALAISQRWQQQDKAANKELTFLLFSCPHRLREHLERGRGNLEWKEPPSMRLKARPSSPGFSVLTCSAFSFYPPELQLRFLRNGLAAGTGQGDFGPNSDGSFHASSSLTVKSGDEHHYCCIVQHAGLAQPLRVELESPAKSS
Assay [11] has the same target. Kind of assay: SPR at pH 6.0, steady state fit.
Assay [12] deals with FcγR2a R167 (UniProt P12318). Kind of assay: SPR, kinetic fit, first of two runs.
Chain of FcγR2a R167 (P12318 36-218 H167R): as the sequence (P12318 36-218) above, with H132R counted along it
For assay [13], the target named is FcγR2a R167 (UniProt P12318). Kind of assay: SPR, kinetic fit, second of two runs.
For assay [14], the target named is FcγR2a R167 (UniProt P12318). The assay is described as follows: SPR, steady state fit, first of two runs.
For assay [15], the target named is Fc-gamma Receptor 1 (FcγR1) (UniProt P12314). The assay is described as follows: SPR, experimental Rmax / theoretical Rmax.
Chain of Fc-gamma Receptor 1 (FcγR1) (P12314 16-288): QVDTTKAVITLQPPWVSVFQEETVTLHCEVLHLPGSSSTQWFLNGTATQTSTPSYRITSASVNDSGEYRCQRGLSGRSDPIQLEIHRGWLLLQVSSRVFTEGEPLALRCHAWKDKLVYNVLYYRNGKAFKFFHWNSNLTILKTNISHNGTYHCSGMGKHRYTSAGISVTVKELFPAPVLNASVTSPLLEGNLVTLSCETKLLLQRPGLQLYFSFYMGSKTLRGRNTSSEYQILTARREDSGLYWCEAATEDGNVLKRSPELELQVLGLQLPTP
Assay [16] addresses FcγR2B/C (UniProt P31994). The assay is described as follows: SPR, experimental Rmax / theoretical Rmax.
The target in assay [17] is FcγR3A 176F (UniProt P08637). The assay is described as follows: SPR, experimental Rmax / theoretical Rmax.
Assay [18] deals with FcγR2a R167 (UniProt P12318). The assay is described as follows: SPR, steady state fit, second of two runs.
The target in assay [19] is neonatal Fc receptor (FcRn) (Human) (UniProt P55899). The assay is described as follows: SPR at pH 6.0, experimental Rmax / theoretical Rmax.
In assay [20] the target is biotinylated SARS-CoV-2 spike RBD (Ancestral) (SARS-CoV-2) (UniProt P0DTC2). Kind of assay: AlphaLISA, inhibition of ACE2-muFc / biotinylated spike complex. (Bead proximity is the source of the signal in Alpha formats.)

Chain of FcγR3A 176F (P08637 17-208): as the sequence (P08637 17-208 F176V) above, with V160F counted along it
Chain of FcγR2B/C (P31994 46-217): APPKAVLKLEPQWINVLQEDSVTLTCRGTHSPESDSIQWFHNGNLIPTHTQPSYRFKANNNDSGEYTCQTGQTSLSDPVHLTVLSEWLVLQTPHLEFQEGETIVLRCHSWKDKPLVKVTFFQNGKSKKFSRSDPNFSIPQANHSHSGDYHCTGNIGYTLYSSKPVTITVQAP

Regarding “anti-RBD neutralizing monoclonal antibody (human IgG1) from Acro Biosystems (SAD-S35)”, the Kd in [1] is 0.46 nM; in assay [2] it was 1360 nM; in assay [3] it was 462 nM; in assay [4], 1110 nM; in [5], 161 nM; in assay [6], 1590 nM. Besides, the Kd amounted to 537 nM in [7]; 796 nM in [8]; 210 nM in assay [9]; 81.1 nM in [10]; 86.5 nM in [11]; 596 nM in assay [12]. Moreover, the Kd turned out to be 650 nM in [13], 636 nM in assay [14] and 640 nM in assay [18]. The % Activity in assay [15] turned out to be 120%; in assay [16] it was 93%; in [17] it was 92%; in [19], 116%. This substance had a half-maximal inhibitory concentration (IC50) in [20] of 6.8 nM.

One may read the Kd as a measure of binding affinity in units of concentration. The IC50 is the concentration that gives 50% inhibition. A higher IC50 goes with a need for much substance.
